Experimental findings from doi:10.1101/2024.03.13.584854 (bioRxiv, 2024) are described below.

This assay concerns the target T1, Saccharomyces cerevisiae Snf7 mutant (R52E) (Saccharomyces cerevisiae, UniProt P39929 1-240, R52E).
T1 sequence (looked up): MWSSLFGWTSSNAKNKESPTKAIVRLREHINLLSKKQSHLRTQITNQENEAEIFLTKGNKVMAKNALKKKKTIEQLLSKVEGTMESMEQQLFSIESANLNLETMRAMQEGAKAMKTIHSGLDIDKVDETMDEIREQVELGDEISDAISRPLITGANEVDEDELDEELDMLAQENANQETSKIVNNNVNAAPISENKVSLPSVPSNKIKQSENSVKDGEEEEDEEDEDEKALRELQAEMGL
Nature of the assay: co-sedimentation.

B1: Saccharomyces cerevisiae Vps2 (natural protein, UniProt P36108 1-232, looked up)
chain: MSLFEWVFGKNVTPQERLKKNQRALERTQRELEREKRKLELQDKKLVSEIKKSAKNGQVAAAKVQAKDLVRTRNYIQKFDNMKAQLQAISLRIQAVRSSDQMTRSMSEATGLLAGMNRTMNLPQLQRISMEFEKQSDLMGQRQEFMDEAIDNVMGDEVDEDEEADEIVNKVLDEIGVDLNSQLQSTPQNLVSNAPIAETAMGIPEPIGAGSEFHGNPDDDLQARLNTLKKQT
As to B1, the binding result is reported as “binds”.

B2: Saccharomyces cerevisiae Vps24 (natural protein, UniProt P36095 1-224, looked up)
chain: MDYIKKAIWGPDPKEQQRRIRSVLRKNGRNIEKSLRELTVLQNKTQQLIKKSAKKNDVRTVRLYAKELYQINKQYDRMYTSRAQLDSVRMKIDEAIRMNTLSNQMADSAGLMREVNSLVRLPQLRNTMIELEKELMKSGIISEMVDDTMESVGDVGEEMDEAVDEEVNKIVEQYTNEKFKNVDQVPTVELAANEEEQEIPDEKVDEEADRMVNEMRERLRALQN
As for B2, the binding result is recorded as “binds”.
